{
  "source": "patent US20150306241",
  "proteins": {"B1": {"name": "Human active MMP2 protein (MW 66,000 Da) (protein)", "chain": "YNFFPRKPKWDKNQITYRIIGYTPDLDPETVDDAFARAFQVWSDVTPLRFSRIHDGEADIMINFGRWEHGDGYPFDGKDGLLAHAFAPGTGVGGDSHFDDDELWTLGEGQVVRVKYGNADGEYCKFPFLFNGKEYNSCTDTGRSDGFLWCSTTYNFEKDGKYGFCPHEALFTMGGNAEGQPCKFPFRFQGTSYDSCTTEGRTDGYRWCGTTEDYDRDKKYGFCPETAMSTVGGNSEGAPCVFPFTFLGNKYESCTSAGRSDGKMWCATTANYDDDRKWGFCPDQGYSLFLVAAHEFGHAMGLEHSQDPGALMAPIYTYTKNFRLSQDDIKGIQELYGASPDIDLGTGPTPTLGPVTPEICKQDIVFDGIAQIRGEIFFFKDRFIWRTVTPRDKPMGPLLVATFWPELPEKIDAVYEAPQEEKAVFFAGNEYWIYSASTLERGYPKPLTSLGLPPDVQRVDAAFNWSKNKKTYIFAGDKFWRYNEVKKKMDPGFPKLIADAWNAIPDNLDAVVDLQGGGHSYFFKGAYYLKLENQSLKSVKFGSIKSDWLGC"}},
  "molecular_target": "T1, PEG2000-peptide-PTX",
  "T1 chain": "GPLGIAGQ",
  "data": [
    {"protein": "B1", "values": [
      {"measurement": "enzymatic digestion followed by TLC (5 ng/µL human MMP2)", "result": "the MMP2 completely cleaved the peptide linker resulting in two digestion fragments (IAGQ-PTX and PEG-GPLG)"}
    ]}
  ]
}
